According to article PMC7203678:

Biological target: T1, C-reactive protein human, recombinant (human), P02741
T1 chain: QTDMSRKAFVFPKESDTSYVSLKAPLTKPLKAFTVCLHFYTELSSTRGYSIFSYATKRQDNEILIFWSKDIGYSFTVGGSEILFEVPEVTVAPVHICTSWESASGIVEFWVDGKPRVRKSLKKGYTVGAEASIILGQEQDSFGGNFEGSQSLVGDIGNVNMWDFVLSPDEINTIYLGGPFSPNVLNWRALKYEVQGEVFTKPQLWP
Assay: native MS
Conditions: remark: other sources report otherwise

- stoichiometry N: 5
B1: C-reactive protein human, recombinant, P02741 19-224 (natural protein)
chain: QTDMSRKAFVFPKESDTSYVSLKAPLTKPLKAFTVCLHFYTELSSTRGYSIFSYATKRQDNEILIFWSKDIGYSFTVGGSEILFEVPEVTVAPVHICTSWESASGIVEFWVDGKPRVRKSLKKGYTVGAEASIILGQEQDSFGGNFEGSQSLVGDIGNVNMWDFVLSPDEINTIYLGGPFSPNVLNWRALKYEVQGEVFTKPQLWP
